Measurements from patent US20250195685A1 (CAPSTAN THERAPEUTICS, published 2025).
Numbering of substitutions follows the chain as printed. In names and notes the source's numbering stands.

What was measured:
[1] = target: T1, human CD8αα homodimer, recombinant protein (Acro Biosystems) (human, UniProt P01732 22-182); assay: BLI kinetics, F(ab) on biotinylated CD8α (SA-XT sensor), 1:1 fit, 37 °C [CONT'ED]
T1 construct: also called CD8αα antigen; biotinylated CD8α recombinant protein (CDA-H82E3)
Method: (§1) Biolayer interferometry kinetic assays were performed using a GatorBio Gator Plus BLI system. Kinetic buffer containing PBS plus 0.1% Tween 20 and 0.2% BSA was used for calculating the baseline. To measure the binding kinetics of anti-CD8α antibody fragment (Fab), streptavidin-immobilized SA-XT sensors (#160029, Gator Bio) were prehydrated in the kinetic buffer and loaded with […] biotinylated CD8α recombinant protein (CDA-H82E3, Acro Biosystems) at a spin speed of 400 rpm to a threshold response of 10 nm. The sensors were then incubated in the kinetic buffer for 300 s to acquire a baseline measurement prior to each association. […] The antigen-loaded sensors were incubated in the diluted solutions to capture Fab fragments for 300 s to record the association phase. Sensors were finally incubated in the kinetic buffer for 900 s to record the dissociation phase. The spin speed for all steps except the antigen loading step was 1000 rpm. The temperature of the performed assays was either 30° C. or 37° C. during the association and dissociation phases. Sensor data were baseline subtracted, and global curve fitting of the kinetic data from six different analyte concentrations at a 1:1 monovalent binding model was performed using GatorOne software (version v2.10) to determine kinetic rate constants (kₒₙ and koff) and equilibrium dissociation constants (KD) of the analyzed antibodies.

[2] = target: T2, human CD8αβ heterodimer, recombinant protein (human, UniProt P01732 22-182; P10966 22-170, limits assumed); assay: BLI kinetics, Fab, 37 °C
Method: as §1
(§2) The binding kinetics of CBD1033 Fab and its parental CBD1017ch Fab against human CD8αα homodimer, human CD8αβ heterodimer, and cynomolgus macaque CD8ααhomodimer were assessed following the same method in BLI evaluation of humanized Fab variants. For evaluating the binding kinetics against cynomolgus macaque CD8αβ heterodimer protein, the antigen protein was directly coupled onto amine-reactive biosensor tips (Gator Bio) following the manufacturer protocol. Briefly, the sensors were activated for 300 s with a mixture of 1-ethyl-3-(3-dimethylaminopropyl)carbodiimide hydrochloride (EDC) (ThermoFisher Scientific) and 10 mM N-Hydroxysulfosuccinimide sodium salt (sulfo-NHS) (Sigma-Aldrich) in water.

[3] = target: T1, human CD8αα homodimer, recombinant …; assay: BLI kinetics, Fab, 37 °C
Method: as §1, §2

[4] = target: T3, cynomolgus macaque CD8αα homodimer, recombinant protein (cynomolgus macaque); assay: BLI kinetic sensorgram, 1:1 global fit (legend: 30 °C; FIG. 2I prints 37 °C for the same constants)
T3 construct: also called cynomolgus CD8αα homodimer
Method: as §1, §2

[5] = target: T1, human CD8αα homodimer, recombinant …; assay: BLI kinetic sensorgram, 1:1 global fit, 30 °C
Method: (§3) The global fitting was performed with a 1:1 fitting model using GatorOne software as described below.
as §1

[6] = target: T3, cynomolgus macaque CD8αα homodimer, …; assay: BLI kinetic assay (told in the description; antigen not given)
Method: as §1, §2

[7] = target: T2, human CD8αβ heterodimer, recombinant …; assay: as above
Method: as §1, §2

[8] = target: T1, human CD8αα homodimer, recombinant …; assay: as above
Method: as §1, §2

[9] = target: T4, cynomolgus macaque CD8αβ heterodimer, recombinant protein (cynomolgus macaque); assay: as above
T4 construct: In BLI coupled directly to amine-reactive sensor tips; also called cynomolgus CD8αβ heterodimer
Method: as §1, §2

[10] = target: T1, human CD8αα homodimer, recombinant …; assay: BLI kinetic rate analysis, Fab fragment (temperature not given)
Method: as §1

[11] = target: T1, human CD8αα homodimer, recombinant …; assay: BLI kinetics, F(ab) on biotinylated CD8α (SA-XT sensor), 1:1 fit, 30 °C
Method: as §1

[12] = target: T4, cynomolgus macaque CD8αβ heterodimer, …; assay: BLI kinetics, Fab, antigen amine-coupled to the sensor, 30 °C
Method: The binding kinetics of CBD1033 Fab and its parental CBD1017ch Fab against human CD8αα homodimer, human CD8αβ heterodimer, and cynomolgus macaque CD8ααhomodimer were assessed following the same method in BLI evaluation of humanized Fab variants. For evaluating the binding kinetics against cynomolgus macaque CD8αβ heterodimer protein, the antigen protein was directly coupled onto amine-reactive biosensor tips (Gator Bio) following the manufacturer protocol. Briefly, the sensors were activated for 300 s with a mixture of 1-ethyl-3-(3-dimethylaminopropyl)carbodiimide hydrochloride (EDC) (ThermoFisher Scientific) and 10 mM N-Hydroxysulfosuccinimide sodium salt (sulfo-NHS) (Sigma-Aldrich) in water. The cynomolgus macaque CD8αβ protein diluted to […] in 10 mM sodium acetate buffer, pH 6.0, was allowed to be covalently captured for 300 s to an approximate threshold of 5 nm, and the sensors were subsequently deactivated with 1 M ethanolamine (ETA) (Sigma-Aldrich) solution, pH 8.5, for 300 s. The sensors were then rinsed in the kinetic buffer for 600 s. The rinse step was repeated for an additional 120 s for baseline calculation prior to the measurements of the binding kinetics. The antibody fragment was diluted into kinetic buffer via 3-fold dilution at concentrations ranging from 1000 nM to 1.37 nM. As above, the antigen-captured sensors were incubated in the diluted solutions to capture the Fab fragments for 1200 s to record the association phase. Sensors were subsequently incubated in the kinetic buffer for 1200 s to record the dissociation phase. The shaking speed for all steps was 1000 rpm and the temperature of the performed assays were at 30° C. The kinetic parameters were determined with 1:1 monovalent (Langmuir) binding model using the previous method.

[13] = target: T3, cynomolgus macaque CD8αα homodimer, …; assay: BLI kinetics, Fab, 37 °C as printed in the table
Method: as §1, §2

[14] = target: T1, human CD8αα homodimer, recombinant …; assay: BLI kinetic sensorgram, 1:1 global fit, 37 °C [CONT'ED]
Method: as §3, §1

[15] = target: T1, human CD8αα homodimer, recombinant …; assay: BLI, whole antibody
[16] = target: T1, human CD8αα homodimer, recombinant …; assay: BLI kinetic rate KD on whole antibodies
[17] = target: T1, human CD8αα homodimer, recombinant …; assay: BLI, whole antibody, steady state dissociation constant (column head x10^-9M)
Method: To assess affinity of whole antibodies, steady state analysis was used as the bivalent nature of both whole antibody and CD8α complicates kinetic analysis. 50 nM CD8α-His (that is, CD8α with a C-terminal oligohistidine tag; Acro) was immobilized on Ni-NTA sensor probes. Binding was analyzed with a three-fold antibody dilutions series: 60 nM, 20 nM, 6.67 nM, 2.22 nM, 0.74 nM, and 0.25 nM. The antigen-loaded sensors were incubated in the diluted solutions to capture the whole IgG antibody for 300 s to record the association phase. Sensors were incubated in the kinetic buffer for 900 s to record the dissociation phase. The spin speed was 1000 rpm for all steps except the antigen loading step which was 400 rpm to control density of the antigen. The temperature of the performed assays was at 30° C. during the association and dissociation phases. The sensor data were baseline subtracted and further analyzed in GatorOne software (version 2.10) to determine the equilibrium dissociation constants (KD) of the antibodies by fitting the signals of the steady states to the 1:1 binding model.

T2 sequence (P01732 22-182 limits assumed, chain 1 of 2): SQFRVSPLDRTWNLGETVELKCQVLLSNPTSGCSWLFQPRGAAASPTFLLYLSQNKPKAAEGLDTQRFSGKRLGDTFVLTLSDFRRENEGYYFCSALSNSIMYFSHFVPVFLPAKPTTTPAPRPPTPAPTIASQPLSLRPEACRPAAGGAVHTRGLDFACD
T2 sequence (P10966 22-170 limits assumed, chain 2 of 2): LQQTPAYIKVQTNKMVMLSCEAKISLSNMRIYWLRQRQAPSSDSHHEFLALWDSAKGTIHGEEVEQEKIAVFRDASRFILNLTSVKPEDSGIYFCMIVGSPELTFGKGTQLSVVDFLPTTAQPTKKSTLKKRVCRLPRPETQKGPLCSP
T1 sequence (P01732 22-182 limits assumed): as the sequence (P01732 22-182 limits assumed, chain 1 of 2) above

B1: CBD1033 Fab (h1017-H2 / h1017-L2) (Fab, V domains shown)
VH: QVQLVQSGAEVKKPGASVKVSCKASRYTFTDYNLHWVRQAPGQGLEWMGFIYPYNGGTGYAQKFQGRVTMTVDTSTSTAYMELSSLRSEDTAVYYCARDHRYNEGVSFDYWGQGTTVTVSS
VL: DIQLTQSPSSLSASVGDRATITCRASESVDGFGNSFMNWYQQKPGKAPKLLIYLASNLESGVPSRFSGSGSGTDFTLTISSVQPEDFATYYCQQNNEDPYTFGQGTKLEIK
notes: Expressed as F(ab) fragment; also called CBD1033 Fab molecule
Kd [1]: 5.5 nM | koff [1]: 0.000194 s⁻¹ | kon [1]: 35400 M⁻¹ s⁻¹ | Kd [2]: 26.2 nM | koff [2]: 0.000653 s⁻¹ | kon [2]: 25000 M⁻¹ s⁻¹ | Kd [3]: 5.5 nM | koff [3]: 0.000194 s⁻¹ | kon [3]: 35400 M⁻¹ s⁻¹ | Kd [4]: 10.4 nM | koff [4]: 0.000264 s⁻¹ | kon [4]: 25400 M⁻¹ s⁻¹ | Kd [5]: 3.25 nM | koff [5]: 0.000145 s⁻¹ | kon [5]: 44700 M⁻¹ s⁻¹ | fold weaker binding affinity than CBD1017ch F(ab) [6]: 5 fold | fold weaker binding affinity than CBD1017ch F(ab) [7]: 5 fold | fold weaker binding affinity than CBD1017ch F(ab) [8]: 5 fold | fold weaker binding affinity than CBD1017ch F(ab) [9]: 5 fold | Kd [10]: 5.5 nM | koff [10]: 0.000195 s⁻¹ | kon [10]: 35400 M⁻¹ s⁻¹ | Kd [11]: 3.25 nM | koff [11]: 0.000145 s⁻¹ | kon [11]: 44700 M⁻¹ s⁻¹ | Kd [12]: 119 nM | koff [12]: 0.00199 s⁻¹ | kon [12]: 16700 M⁻¹ s⁻¹ | Kd [13]: 10.4 nM | koff [13]: 0.000264 s⁻¹ | kon [13]: 25400 M⁻¹ s⁻¹ | Kd [14]: 5.5 nM | koff [14]: 0.000194 s⁻¹ | kon [14]: 35400 M⁻¹ s⁻¹

B2: CBD1383 whole antibody (VH N55D of CBD1033, deamidation mimic), Fc-silenced human IgG1 (antibody, V domains shown)
VH: B1 VH with N55D
VL: DIQLTQSPSSLSASVGDRATITCRASESVDGFGNSFMNWYQQKPGKAPKLLIYLASNLESGVPSRFSGSGSGTDFTLTISSVQPEDFATYYCQQNNEDPYTFGQGTKLEIKR
notes: also called 100% deamidation mimic
koff [15]: 0.00303 s⁻¹ | kon [15]: 1.1e+06 M⁻¹ s⁻¹ | fold reduction of affinity compared to CBD1033 [16]: ~5.5 fold | Kd [17]: 7.94 nM
